These results are taken from a protein production outcome set (Wang et al. 2014).

The nature of the series: label from the status in PepcDB records.
For “MDKKAMWDRFYTENGSKGQFKNFEWFFGFPSVKDLVLPALQAMSCSHSGPLHILDMGCGTSALGPCIYSTSPCAVRVTCADISPVAVKLMEEHTKSTSTQPCNPSSALVFLELDCTQMTGHFKSRSLDLILDKGTTDALVRSKEGQVKAGQILRQSLQVLRPSGSFLQFSDEDPDARLIWLEREVQGAEVTADVGVQEIGELRGVSYFCYQISPRSRPHS”, the protein production entry is reported as “failed”.

Turning to “MDKLRGMETFIAVVECGSFTGAASRLGLSAVMVGKYIAQLESQLATRLLERNTRRQSLTDAGRVYFDEAKRVMEQVSIAESAVERLRLAPAGTLRVSAPTSFGASVIAPLTATFLQAWPAVRVELDLTNRMVDLVDEGVDLAIRIGEIHQEDLVARYLAPYRMVICAAPAYLARYGTPGTPEDLTDHLCLSHTVWTARNEWRLPGVEGEVRWKRDAVLRCNDGYALRQAAIAGAGLLMQPEVLLADALASGSLVRVLEAWTPQPRPVHLLWRQDRRPLPKLTQFIAHLQQGMADALTTTRASE”, the protein production result is on record as “failed”.

On to “MDKNALRKQILQKRMALSTIEKSHLDQKINQKLVAFLTPKPCIKTIALYEPIKNEVTFVDFFFEFLKINQIRAVYPKVISDTEIIFIDQETNTFEPNQIDCFLIPLVGFNKDNYRLGFGKGYYDRYLMQLTRQQPKIGIAYSFQKGDFLADPWDVQLDLIINDE”, for which the protein production result is on record as “not failed”.

“MDKQSSAGGVKRSVPCESNEVNETMPETPTGDSDPQPAPKKMKTSESSTILVVRYRRNVKRTSPEELLNDHARENRINPLQMEEEEFMEIMVEIPAK”: the protein production entry was “failed”.

In the case of “MDKRRVRAIKTFGAAMETYLAHTRWADSTRAVRKHIIDRDILPVFQNRLLTEIQAEDLRILCNKVKERGAPATAVQIRDIVKQVYVYAIAHGEKVVNPADSVGPSSIALEHHHHHH”, the protein production result is “not failed”.

“MDKTKRKMIYETFMLILILLSLALLPYRNNFTFILNWIIWVIFTLDYLVRLYRADNKWHYVKTHPFQLIAIIPFYGGFRAARIVSFVHLLSITAMGRRYIVPIYSFFRSNGLNRFLMIFVLLVIIIPVPMVFIEPEINNYPDALWWAIVTATTVGYGDIVPVTPIGRILASIMMLFGIAFIGMITSTITNFFRAKKPTNSSTQRANKITQLISETPDLTKEEIAVVEQFLTLRKKELADENTKSDSE”: the protein production entry is reported as “failed”.

Consider “MDKTQSYDIFLIAPPGLEQVLAEEATACGFDEPRVVPGGVETRGPWSEVMRANLVLRGAGRVLVRIGGFPAVHLAQLDKRARKFAWGDFLRPDRPIRVEAVSRKSKIYHAGAAKQRVERAITEELGAPISDEAEIRLMLRIERDFCTFSIDTSGEALHKRGHKEAVGKAPMRETMAALFLRQCGFDGAEPVLDPMCGSGSFVIEAAEWAAGLMPGRSRSFAFEQLAGFDAAQWQSMRNAAGAGGRPESLYSGSDRNAGAIDASRANATRAGVADFCAFHQRPVSDIRPPEGRPGLVIVNPPYGARIGDQARLRSLYGSLGKVLMDRFSGWRVGLITSEMSLARSTRLPFQAPGPVVDHGGIKVRLYQSVRLR”, for which the protein production result was “failed”.

As to “MDKTYILPIPNEYQNLARELSMQSGKIYSKAVSFLKKINRKGLRIKQKTFYRYMEWWIHQKSFILHSQSKQAAYQQAWTNYTATLRKIKKAKKKNKNTSKIRLPYRNKKYNKVCFKDSAIKLEGDNLILVNMKGAERIVIDNVRIGIKPKYAELLYHADKGKYYVHVVVEIAKEQEAKKRSGKTIAIDLGVIHPMVCFDGNKVVVYNGGVLNSILRYRNKKQSLLQSKISGCQKGSKRRGKLQRAKTKLLRRLSNLIRDVLGKYTSHLIGYCVENGITTIVMGDVKGIRNSKKKSNKVASQKVHQWLFRKISKMIEQKAEFAGIEVVYVKENMTSQICPVCGSKNKPLDRNYECKSCGFRYHRDGVGAVNIYRKYTGESLVVGRLACPTGVRFKSHLRCPVEWNTHPWDKNCSTGKVA”, the protein production result was “failed”.

Consider “MDLCRSSILLLIIALLSPRTLSMRYELKSSKTKCIGEEIHENAMSIGKYFIVNPNEDNHPLPDSHKIIVKVMPPQGKNLHEADKVEAGQFSFTAYENGSYVACITAIDYKPETTLTIDFDWKTGVHSKEWTNVAKKSQVDMMEYQVKTLMDTVISIHEEMYYLREREEEMQELNRSTNSKMAWLSFGSLVVCLSVAGLQFWHLKTFFEKKKLI”, for which the protein production entry was “failed”.

In the case of “MDLGKPMKSVLVVALLVIFQVCLCQDEVTDDYIGDNTTVDYTLFESLCSKKDVRNFKAWFLPIMYSIICFVGLLGNGLVVLTYIYFKRLKTMTDTYLLNLAVADILFLLTLPFWAYSAAKSWVFGVHFCKLIFAIYKMSFFSGMLLLLCISIDRYVAIVQAVSAHRHRARVLLISKLSCVGIWILATVLSIPELLYSDLQRSSSEQAMRCSLITEHVEAFITIQVAQMVIGFLVPLLAMSFCYLVIIRTLLQARNFERNKAIKVIIAVVVVFIVFQLPYNGVVLAQTVANFNITSSTCELSKQLNIAYDVTYSLACVRCCVNPFLYAFIGVKFRNDLFKLFKDLGCLSQEQLRQWSSCRHIRRSSMSVEAETTTTFSP”, the protein production entry is “failed”.

Take “MDLIITFGLLTLVVLLEFIVVPAIILKRGTKFSTIYNYPIYIINSTEINAYSLTSVWGKFIVLTRGLVNGEDEEHIKAAIMHEVGHLKLNHHVKMSLYIISVIMVFTYLLGVNMLTLIPFALVALLVQRYLQRRLELGADRFALRFINKKMLEDLITKYDMKETTFLSTHPNIHVRLKNINE”: the protein production entry is listed as “failed”.

With “MDLLIALLPALFWGSVVLINVLVGGGPYNQIRGTTLGTLIIGIILLLTGNAKFDDLAVIIVGLISGAFWALGQGYQLKSISLIGVSKTMPISTGLQLVGTTLFSAIFLGEWSTGIQVTLGLVAMVLLVIGIALTSIKGKNEASGGNNKFGKAIPILIISTVGYVVYVVVAQIFGVDGMNALFFQSIGMAIGGLILSAKHETSVKSTMWNIIPGVIWGIGNLFMFYSQPKVGVATSFSFSQLLVIVSTLGGIFLLGERKDKRQMIGIWAGIVLIIIAAFILGNLKG”, the protein production result is given as “failed”.

Regarding “MDLLSLLDINNTLVNIPIGGGYAMSWVEGFGTIFGLLCIWFASQEKTINYVFGLLNVTLFAVIFFQIQLYGLLLLQLFFFCANIYGWYAWTKPNSSGETLEVRWLSQSKLLAISGGSIAAIALLTIYIDPFFFSLATIAVDGMNLFGAELAEPVLAPDAFPFWDSTMTVLSIVAQILMTRKYVENWMLWIVINIISIGIYATQGVFAMSVQYSILMFIAANGAREWARTAKENINNKQVEKAIA”, the protein production entry is recorded as “failed”.

“MDLRIKNKAKKIKAVFFDIDDTLRIKDTGYMPDSIKKVFESLQEKDILTGIASGRAPYGVVPEIRQLNPDFFVTINGSYVINHKGEELSNDPIPKDIIEKYVVWCQEIGIEYGFAGKDKAVVSKRTELVDKALVPVYGFCPVEPDFYKNHEVYHMWTFEDVGDSLQLSDELKEDVRLVRWHENSSDVIKNGISKASGLAHVLKKVHLKPENVLFFGDGPNDMEIFDYVGLKVAMGNGHGDLKEKADFITKNVEEDGILYALEELGLVEKELQFPQLDVTNDDAPMALIKTNYGDLKVKLFPKQAPKTVANFVALAKDGYYDGVIFHRVIKDFMIQGGDPTGTGMGGESIYGERFEDEFSEELYNLRGALSMANAGPNTNGSQFFIVQNQNLPYSAKELERGGWPKEIAAAYAENGGTPHLDRRHSVFGQLVDQASYEALDNIANVDTGVADKPIDDIVIESIEVIDDENRG”: the protein production result was “failed”.

For “MDLVPLKLVTIVAESLLEKRLVEEVKRLGAKGYTITPARGEGSRGIRSVDWEGQNIRLETIVSEEVALRILQRLQEEYFPHYAVIAYVENVWVVRGEKYV”, the protein production result is listed as “not failed”.

With “MDMLHAMRTFTRVVECGSFAAAANALDISAAQVSRIVAELENQLQTRLLHRTTRRLRMSEAGERFLERARQIMLLTEEAVGEARGAHLTPRGHLRLHCPHGMGLLLMPLVAGYNMLYPEVVIELTLSQRNPDPLAEGHDVVITVDGALPDSQLIAVPLGNIFSIPCAAPGYLDTHGVPERPEDLHGHRCLRMAYPMYEGDWVFPQGVDQCVIAPNDSFSTNVADAMLVASELGMGIGLLPFYTASEAIGQGRLCRLLAPYRLRESALYAMYPSRHYLDAKVRTWIDYLKEQLPALFEGHARVVDDARYWR”, the protein production entry was “failed”.

As for “MDMLKKRKLDENGIAMLHDGVSGSVSFRLVPQDARKITELFFADQLLDILQEAIVRHPDVLFFFF”, the protein production entry was “failed”.

Take “MDMRSHEMIERRREDNGNNNGGVVISNIISTNIDDNCNGNNNNTRVSCNSQTLDHHQSKSPSSFSISAAAKPTVRYRECLKNHAASVGGSVHDGCGEFMPSGEEGTIEALRCAACDCHRNFHRKEMDGVGSSDLISHHRHHHYHHNQYGGGGGRRPPPPNMMLNPLMLPPPPNYQPIHHHKYGMSPPGGGGMVTPMSVAYGGGGGGAESSSEDLNLYGQSSGEGAGAAAGQMAFSMSSSKKRFRTKFTTDQKERMMDFAEKLGWRMNKQDEEELKRFCGEIGVKRQVFKVWMHNNKNNAKKPPTPTTTL”: the protein production result was “failed”.

On to “MDNDAAKKQLEFLKGGFKLLCQSGGAIFGDADFDGGNLEASEWIAMTEAQFLGGDYSEKDKLACVSGFFGGQAKFWFHKELSWIPFNSWSQVKDGLLLTFGNNRDKKRVLVELDLEMKHWIKDFDRKREPHKFLES”, for which the protein production result is “failed”.

“MDNVELSPATRWGMIATGLLQGLVCYLLIAWLSGKNHSWIVYGVPATVAFSSVLLFSVISFKQKRLWGWLALVFIATLGMSGWLKWQTDGMTPWRAEKALWDFGCYLLLMAMLLLPWIQQSLRIRNDSSRYRYFYQSVWHNVLILLVIFLANGLTWLVLLLWSELFKLVGITFFKTLFFATDWFIYLTLGLVTALAVILARTQSRLIDSIQKLFTLIATGLLPLVSLLTLMFIITLPFTGLSAISRHISAAGLLLTLAFLQLILMAIVRDPQKASLPWTGPLRCLIKTALLVAPLYVFIAAWALWLRVAQYGWTVDRLQGALAVLVLLVWSLGYFVSIVWRKGQNPLVLQGKVNLAVSLLVLVILVLLNSPVLDSMRISVNSHMARYQSGKNTPDQVTIYMLEHSGRYGRAALESLKSDAEYMKDPKRARDLLMALDGEQHLQQQISEKVLAENVLIAPGSGKPDATFWSALIQDRYNVMTCIEKDACVLVEQDLNSDGRAERILFAFDDERYIVYGFDPDKKEWQELTMSLLPRDITKEKLLTAAKDGKLGTKPKAWRDLVVDGERLDVNLNE”: the protein production entry is reported as “failed”.

For “MDPAEMRYLEEEDGPLMKTIKGSITGFGAGTIYGTILATWKDVPRVERNVALPGLIRTLKMMGTHGLTFAAIGGVYIGVEQLVQNFRSKRDFYNGAIGGFVAGASVLGYRARSIPTAIAAGATLAVTSALIDSGGQTTRVDNGREYYPYTVEKRAEADS”, the protein production entry was “not failed”.

Take “MDPESIMAADGTDSAPANGGLAMENVCVKENGAVSVETVDTTSESQNENSANSSTLDTIEHVKEAAEGTQVEHVDDSKCMKGEKAQRKPRHEKLSGGKNNSSVHIKKSKEGKSADAKVAASNGSVAPNVQTTNPLKSKSFNGREAQVTKQGKHDSAPAESADGEKVKPKSQKKQAHETSEDDTQSSNSPKADDGKPRKVGALPNYGFSFKCDQRAEKRKEFYVKLEEKTHAKEEEINSMQAKSKETQEAELRMLRKSLNFKATPMPSFYQEPQPPKTELKKIPPTRPKSPKLGRKKTASGADSEETQTPRLGRLSLDERASKDNPTAKGIMPTVDLKKQPVRKSLPRLPSQKTVLPDGKPAPAKAAIIPAKVRPEKKKLEKDAETVNQTSHPTEEEAQVTVSSNADVEDSHETVSPRMNEDRADKSIEVSEAVAVEH”: the protein production result was “failed”.

“MDPFASLAEAYEAWYGTPLGAYVIAEEERALKGLLPPGESLLEVGAGTGYWLRRLPYPQKVGVEPSEAMLAVGRRRAPEATWVRAWGEALPFPGESFDVVLLFTTLEFVEDVERVLLEARRVLRPGGALVVGVLEALSPWAALYRRLGEKGVLPWAQARFLAREDLKALLGPPEAEGEAVFLAPEAHPPYEEADLAGRRAGNRPALYLGRWR”: the protein production entry is on record as “not failed”.
